Measurements published in the supplement of paper PMC12764529.
± gives the half width of the 95% confidence interval.

Assay: folding stability dG unfold from chymotrypsin proteolysis; higher = more stable
In short: (§1)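 Designed mini-proteins with no cysteine and under 80 residues were kept only if AlphaFold2 dimer inter-PAE was above 15. In a PA-tagged cDNA display construct, they were digested with trypsin and chymotrypsin and then sequenced. K50 was inferred by Bayesian fitting of counts, and unfolding free energy was derived per protease or combined against a sequence-predicted unfolded-state K50 and a shared folded-state K50.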

Row | Sequence | folding stability dG unfold [kcal/mol]
1 | SAGFKIKIEPIEVLPNGTVKYKAIIETEKEKYEVEAFYNPKTGLIYIYSPKTGSIMKINPKTGKIILIPSAG [r14_260_TrMRF] | 4.18 ± 0.11
2 | MITPEEAIELAKEKAKELLEKAGPGTPSVVVEIKAEDGRVVKVEVDPVKKVINITVYDKGGKKVAEKIIEES [r1_370_JUSTAS] | 2.67 ± 0.099
3 | SAGGMTITVKPPDGTVITYTSETLPEIIAKLDPNGTYTITIEVPKVDPSNGGARPIVKTYTVPKERISAGGS [r16_806_JUSTAS] | 1.21 ± 0.17
4 | SAGGSAGGSAGEIEVTVTFTGDDGYVVEVKYTFEVPEPNNPIIKKVEVKVKKLKPNEPASSAGGSAGGSAGG [r11_517_TrMRF] | 2.63 ± 0.063
5 | SAGKKKKYKIKIKIEISEDGTIKITIEIFDKNGKLVKKIEITIKLPKVKLSEEELKEAAKKGDLEKALKSAG [r5_944_TrROS_Hall] | 3.6 ± 0.28
6 | SAGGSAGGMTFTIPPGKPVTIRVYNRNGELIEEVTVTGAGARIHVSEIPGTGELKITRIDEIPPSAGGSAGG [r6_523_TrMRF] | 2.91 ± 0.071
7 | SAGGSAGGSDPSEVRLTFTVTVELTFDAVLFYEPGTGRLVAVAPYLRVEVEVEVTLTFPADALSAGGSAGGS [r12_600_TrMRF] | 5.04 ± 0.11
8 | SAGGSAGGSAGGPKGYFRIRIEIPNGQKREIWFPPDDAEEWVKSLGIPEENVKITKIEPYSAGGSAGGSAGG [r7_211_TrROS] | 0.874 ± 0.27
9 | SAGMKKVEIVEEVKDPETNEPVILVRDKDTGELVKFHPNGKVTIYDLNDPNKAKVFEAKISDVLEELANSAG [r5_491_TrMRF] | 1.28 ± 0.19
10 | WKIVEITDIEPDPDGWLEIKITIEPPEPGDPIKIMIFHPNQFHEFEIDPESPEIEIRIPPGFDNLHIFIYVS [r1_428_TrROS] | 4.42 ± 0.2
11 | SAGGSAGGSAGLEVPPGVPVKIPVVYVDKENDYVIVTELTITPDSGEIFYDPKIIPKKELSAGGSAGGSAGG [r11_468_TrMRF] | 0.734 ± 0.07
12 | SAGGSAGGSAGGLLEELKAKGYTVLSTPVPSPPDGVPTRTVLAKKGEGTVTFVVPAALLSAGGSAGGSAGGS [r10_35_JUSTAS] | 0.525 ± 0.17
13 | SAGGSAGGSAMVRIEFENGLVAEFPSDLPLEEVKEKAVELAKLLSNDKKPVKVKILDIKEEGSAGGSAGGSA [r18_213_TrMRF] | 0.763 ± 0.09
14 | SAGGSAGGSAGIVIPLDGRPIVIDMYPNGYMRIEVEPPNGKKKTRTFPGAPIEDILKAIKSAGGSAGGSAGG [r11_934_TrROS] | -0.0199 ± 0.12
15 | SAGGSAGGSAGGMREIAREIWEEYNNPVTIRIRNPNGKHEPFRFPDDPEDIPGWDIDDITSAGGSAGGSAGG [r7_998_TrROS] | 0.79 ± 0.098
16 | EEIIEKLKEEGYEIVSVSIKEVNGKKKIFIAVRRKDKPEYLLVEIDLENKEVKIKKVKKFPKGESIEDILSS [r1_383_TrROS_Hall] | 3.98 ± 0.23
17 | SAGGSAGGSAGGMKIPPSLLTEVKESIVPTPEGSTKITTVTAKVPGTGEVVTYTLTTPVASAGGSAGGSAGG [r7_348_JUSTAS] | -0.744 ± 0.31
18 | SMMYLVKIKVRNKETGELVEEIELVVESEEEAEKIAEELAEELGLEVEVEVKRISPEELEDPEILKELLESA [r9_864_TrROS_Hall] | 3.53 ± 0.088
19 | SAMKVTVKPTTLPDGTTVVVTTEPDKIVAYGTYNGDSFTSESLPDGTVVTTAKKPGGVLVTSPTDPNLESAG [r14_213_JUSTAS] | 0.112 ± 0.14
20 | SAGGSAGGSMKTYTLPNGLRVQLVRVDKKTKTITLKVFDKNGELVEEIEIKVDEPVELLVVYPSAGGSAGGS [r12_960_TrROS_Hall] | 2.69 ± 0.05
21 | SAGGSAGGSAKITIELDGITEVEFDEETGELYLRIEVDGKLYEIRITEDGTIEIREVPLEDSAGGSAGGSAG [r3_62_TrROS_Hall] | 3.63 ± 0.11

Assay: folding stability dG unfold from trypsin proteolysis; higher = more stable
In short: as §1

Row | Sequence | folding stability dG unfold [kcal/mol]
22 | SAGGSAGGSASITLTLGDTPLEVSTDPSTNTYTFTYPAPGLVLTLDVSTGKLSARPLAELASAGGSAGGSAG [r3_137_JUSTAS] | 0.216 ± 0.11
23 | SAGGMIVTTIPGSPAIKVEIPFPETPFSATITIPIAPDGTVTADLKPHPDMSEELIEKIKELAKELLKSAGG [r13_139_JUSTAS] | 1.03 ± 0.024
24 | SALSASELAKRVRDRIKELSNEEGYNVDIKVDVQPNEDGSVTVHIQFDSPWMIKRIKEKLPPGVNVEIMSAG [r14_491_TrROS] | 3.15 ± 0.073
25 | SAGGSAGGPVITFPWNDIPELLERARENGDPEYYIRVSPDDPGNFTIMPPEEAEENGMPVIPLDSAGGSAGG [r6_710_TrROS] | -0.976 ± 0.45
26 | SAGGSGSSMSVSVSVTTSPVSVDPNKPVPIEVATTTTPVSSYDPVTGTSSTTTTTTTVPLGNPEAASAGGSA [r2_489_JUSTAS] | 2.62 ± 0.081
27 | SAGGSMVIRVETPEEAEEAARELAERLRELFPEVKELEIKVKVEVVDEETGEEKEYEFTIKLKLPPSAGGSA [r2_393_TrROS_Hall] | 2.54 ± 0.12
28 | SAGGPEVEAERFGDTVLVRITLLDPETGEPYEFLAIATRRPDGTVTVTIIHPDGRPSTIPLPLLPLASAGGS [r16_154_TrMRF] | 2.63 ± 0.16
29 | SAGGSAGGSAMTVSIPPEVITSVEYDPSTNKVTITPSDGSVKTYDVESPEEVFKANNIGPESAGGSAGGSAG [r3_34_JUSTAS] | 0.887 ± 0.044
30 | SAGGSAGGSAGGSPVRVKLKFKKKFTVLLPLTDEDDEILDVEKEYTVEITLEVTLPPDLSAGGSAGGSAGGS [r4_326_TrMRF] | 3.26 ± 0.15
31 | SAGGSAGGSAGSVIVTSTTSTLPNGTVVTNETVSDPSNPGVTTKKTSTTYPDGSVTTTESSAGGSAGGSAGG [r11_483_JUSTAS] | 0.213 ± 0.043
32 | SAGMIEILELPPNKAIVKIYDPKTGKFEIIEIDFGGKDGKPLSLEELIEKIKKLAKELYPDLEINVTPLSAG [r5_293_TrMRF] | 3.28 ± 0.26
33 | SAGGMKPGESSTVPPVVERTTSPDSLGNPRYTVTRVTEITVTYFPDSINVTVTTETTVVSTATPGLLSAGGS [r8_70_JUSTAS] | 2.2 ± 0.059
34 | SAGGSEPEPLRVSEITDIKESVLPNGTLKATVTLKLPEKDEEVEIEVEASSEEEIEEAIEEIVKLESAGGSA [r2_248_JUSTAS] | 0.678 ± 0.089
35 | SAGGKTKEIELEILFEPVKVKKKKKNKNGKEEEVEEKEFKPVLVRITLKIENGKITEIKIEVEKLDDLSAGG [r13_935_TrROS_Hall] | 2.05 ± 0.077
36 | SAGGKEIKIEVELDEDGNLTVTITLPDGRVVRITFTPGKITVEVFDAETGELVEEKTLTADELLELLSAGGS [r8_476_TrROS_Hall] | 3.46 ± 0.16
37 | SAGGSAGGSAGMKTITKKVKSEEEAKKLAEELKKKGYKVEVEVKKDPKTGNYIVTITIELPESAGGSAGGSA [r18_455_JUSTAS] | 3.32 ± 0.18
38 | KKTYTAEEIRKLAEKLGLEVPEGDLEIKVVFKDNKKTYTIKPGEEYTLEEILEKLKKEKPNIVKIEIKKKPS [r1_135_TrROS_Hall] | 1.32 ± 0.18
39 | SAGGSAGGSAGGMITTGITVSATDPNSSTSYTVTVPSSVPSSTFPANTAVGSAALAKLLASAGGSAGGSAGG [r17_412_JUSTAS] | -0.554 ± 0.19
40 | SLSPALEGPEALAALAAADPVPPLPVLTVKNSTGDPEKALEEVLKEHPELKPELIVEVEVGEGTLTITVLSA [r9_723_JUSTAS] | 0.442 ± 0.13
41 | PKYVIKAVNPKVGEVKTIEVDDDPEKAIEALKALKKADPDIKFYISGVKSDELIEAAKEAGLEDLNFTEVES [r1_114_TrMRF] | 3.2 ± 0.15
42 | SAGGSVEKKLLEYDPATGNRLVEVTAKAKPEVVEELIAKGYDPSTISPLGDGTVRALLTIPPDEKLDSAGGS [r16_755_JUSTAS] | -0.295 ± 0.25

Row | Sequence | folding stability dG unfold [kcal/mol]
43 | SAGFKIKIEPIEVLPNGTVKYKAIIETEKEKYEVEAFYNPKTGLIYIYSPKTGSIMKINPKTGKIILIPSAG [r14_260_TrMRF] | 3.44 ± 0.15
44 | MITPEEAIELAKEKAKELLEKAGPGTPSVVVEIKAEDGRVVKVEVDPVKKVINITVYDKGGKKVAEKIIEES [r1_370_JUSTAS] | 2.06 ± 0.1
45 | SAGGMTITVKPPDGTVITYTSETLPEIIAKLDPNGTYTITIEVPKVDPSNGGARPIVKTYTVPKERISAGGS [r16_806_JUSTAS] | 0.865 ± 0.11
46 | SAGGSAGGSAGEIEVTVTFTGDDGYVVEVKYTFEVPEPNNPIIKKVEVKVKKLKPNEPASSAGGSAGGSAGG [r11_517_TrMRF] | 1.12 ± 0.075
47 | SAGKKKKYKIKIKIEISEDGTIKITIEIFDKNGKLVKKIEITIKLPKVKLSEEELKEAAKKGDLEKALKSAG [r5_944_TrROS_Hall] | 2.23 ± 0.28
48 | SAGGSAGGMTFTIPPGKPVTIRVYNRNGELIEEVTVTGAGARIHVSEIPGTGELKITRIDEIPPSAGGSAGG [r6_523_TrMRF] | 2.33 ± 0.049
49 | SAGGSAGGSDPSEVRLTFTVTVELTFDAVLFYEPGTGRLVAVAPYLRVEVEVEVTLTFPADALSAGGSAGGS [r12_600_TrMRF] | 3.17 ± 0.096
50 | SAGGSAGGSAGGPKGYFRIRIEIPNGQKREIWFPPDDAEEWVKSLGIPEENVKITKIEPYSAGGSAGGSAGG [r7_211_TrROS] | 0.506 ± 0.15
51 | SAGMKKVEIVEEVKDPETNEPVILVRDKDTGELVKFHPNGKVTIYDLNDPNKAKVFEAKISDVLEELANSAG [r5_491_TrMRF] | 0.622 ± 0.071
52 | WKIVEITDIEPDPDGWLEIKITIEPPEPGDPIKIMIFHPNQFHEFEIDPESPEIEIRIPPGFDNLHIFIYVS [r1_428_TrROS] | 2.82 ± 0.24
53 | SAGGSAGGSAGLEVPPGVPVKIPVVYVDKENDYVIVTELTITPDSGEIFYDPKIIPKKELSAGGSAGGSAGG [r11_468_TrMRF] | 0.251 ± 0.063
54 | SAGGSAGGSAGGLLEELKAKGYTVLSTPVPSPPDGVPTRTVLAKKGEGTVTFVVPAALLSAGGSAGGSAGGS [r10_35_JUSTAS] | -0.172 ± 0.18
55 | SAGGSAGGSAMVRIEFENGLVAEFPSDLPLEEVKEKAVELAKLLSNDKKPVKVKILDIKEEGSAGGSAGGSA [r18_213_TrMRF] | 0.14 ± 0.15
56 | SAGGSAGGSAGIVIPLDGRPIVIDMYPNGYMRIEVEPPNGKKKTRTFPGAPIEDILKAIKSAGGSAGGSAGG [r11_934_TrROS] | -0.695 ± 0.71
57 | SAGGSAGGSAGGMREIAREIWEEYNNPVTIRIRNPNGKHEPFRFPDDPEDIPGWDIDDITSAGGSAGGSAGG [r7_998_TrROS] | -0.831 ± 0.3
58 | EEIIEKLKEEGYEIVSVSIKEVNGKKKIFIAVRRKDKPEYLLVEIDLENKEVKIKKVKKFPKGESIEDILSS [r1_383_TrROS_Hall] | 2.95 ± 0.2
59 | SAGGSAGGSAGGMKIPPSLLTEVKESIVPTPEGSTKITTVTAKVPGTGEVVTYTLTTPVASAGGSAGGSAGG [r7_348_JUSTAS] | 0.0354 ± 0.032
60 | SMMYLVKIKVRNKETGELVEEIELVVESEEEAEKIAEELAEELGLEVEVEVKRISPEELEDPEILKELLESA [r9_864_TrROS_Hall] | 2.77 ± 0.13
61 | SAMKVTVKPTTLPDGTTVVVTTEPDKIVAYGTYNGDSFTSESLPDGTVVTTAKKPGGVLVTSPTDPNLESAG [r14_213_JUSTAS] | 0.26 ± 0.02
62 | SAGGSAGGSMKTYTLPNGLRVQLVRVDKKTKTITLKVFDKNGELVEEIEIKVDEPVELLVVYPSAGGSAGGS [r12_960_TrROS_Hall] | 2.09 ± 0.061
63 | SAGGSAGGSAKITIELDGITEVEFDEETGELYLRIEVDGKLYEIRITEDGTIEIREVPLEDSAGGSAGGSAG [r3_62_TrROS_Hall] | 1.86 ± 0.097
